The source of these data is patent publication US12331319B2, “Respiratory and sweat gland ionocytes” (The Broad Institute, Inc., priority 2017, dated 2025).

For this assay, the system named is cultured proximal and distal airway epithelium. Briefly: IL-13-induced mucous metaplasia (goblet cell differentiation) in cultured proximal and distal airway epithelium (ALI). In kind it is cell-based, mouse. Conditions: rIL-13 25 ng/mL vs control; epithelia from proximal vs distal trachea, Foxj1-GFP mice n=6; p<0.001. As for the experimental part: Transwell cultures. Cells were cultured and expanded in complete SAGM (small airway epithelial cell growth medium; Lonza, CC-3118) containing TGF-β/BMP4/WNT antagonist cocktails and 5 μM Rock inhibitor Y-27632 (Selleckbio, S1049). To initiate air-liquid interface (ALI) cultures, airway basal stem cells were dissociated from mouse tracheas and seeded onto transwell membranes. After reaching confluence, media was removed from the upper chamber. Mucociliary differentiation was performed with PneumaCult-ALI Medium (StemCell, 05001). Differentiation of airway basal stem cells on an air-liquid interface was followed by directly visualizing beating cilia in real time after 10-14 days. […]
Statistical analysis of proximodistal mucous metaplasia. For the analysis in FIG. 18H,I, the extent of goblet cell hyperplasia was assessed using counts of Muc5ac^+ goblet cells, normalized to counts of GFP^+ ciliated cells. To quantify differences in the count values between the samples in different conditions (n=6, Foxj1-GFP mice), Applicants fit a negative binomial regression using the ‘glm.nb’ function from the ‘MASS’ package in R. Pairwise comparisons between means for each condition were computed using post hoc tests and p-values were adjusted for multiple comparisons using Tukey's HSD, implemented using the function ‘pairs’ from the ‘emeans’ package in R.

B1: rIL-13: recombinant murine IL-13 (Peprotech) used to induce mucous metaplasia (protein, UniProt P20109 19-131, looked up)
Interleukin-13: APGPVPRSVSLPLTLKELIEELSNITQDQTPLCNGSMVWSVDLAAGGFCVALDSLTNISNCNAIYRTQRILHGLCNRKAPTTVSSLPDTKIEVAHFITKLLSYTKQLFRHGPF
On to B1, for which the “induction of goblet cell differentiation (Muc5ac+ goblet cells / GFP+ ciliated cells)” value is on record as “much higher induction of goblet cell differentiation in the distal epithelium”.
